The results in this text go back to patent US20090004675A1, “Method of Identifying Compounds for Bacterial Growth Modulation” (priority 2004, published 2009).

The target of experiment [1] is Streptococcus pyogenes β clamp. The experiment can be described thus: fluorescence anisotropy; labeled peptide. The conditions noted are these: chains peptide; modification not given.
Experiment [2] addresses Escherichia coli β clamp (beta subunit of DNA polymerase III holoenzyme), P0A988. The experiment can be described thus: fluorescence (fluorophore-labeled β titrated with peptide); ±0.4; labeled β. The conditions noted are these: chains peptide; modification not given.

B1: Peptide corresponding to C-terminal residues of Streptococcus pyogenes Pol C (peptide)
chain: DEMGILGNMPEDNQLSLFDDFF
Regarding B1, the Kd (as a rule, the free concentration of one partner at which half of the binding sites on the other are occupied at equilibrium, for simple one-to-one binding) in experiment [1] came to 2.2 µM. In other words, the single-digit micromolar range.

B2: C-terminal peptide corresponding to Staphylococcus aureus Pol C (peptide)
chain: DELGSLPNLPDKAQLSIFDM
Consider B2, for which, in experiment [1], the Kd is 14 µM.

B3: 20 mer peptide corresponding to the C-terminal 20 residues of E. coli Pol III α subunit (peptide)
chain: RLLNDLRGLIGSEQVELEFD
With B3, in experiment [2], the Kd worked out at 2.7 µM.
